This note sets out measurements from US20170216434A1 (WAYNE STATE UNIVERSITY, published 2017).

The target of assay [1] is Very late antigen-4 (VLA-4), alpha4beta1 integrin, on the surface of human reticulocytes and mononuclear leukocytes (human) (UniProt P13612). The assay can be described thus: cell-based or functional assay.
For assay [2] the target is unchanged. Description: flow cytometry saturation binding on isolated RBCs from 5 SCD donors.
The target is the same in assay [3]. Description: flow cytometry saturation binding on isolated RBCs (reticulocytes) from 5 SCD donors, one-site binding analysis. On the technique in general: A flow cytometer gives signals particle by particle.
The target is the same in assay [4]. Description: flow cytometry saturation binding on isolated RBCs, individual SCD donors.
Assay [5] deals with T1, Very late antigen-4 (VLA-4), alpha4beta1 integrin, on the surface of human reticulocytes and mononuclear … (human, UniProt P13612 34-1032; P05556 21-798).
T1 construct: whole, on cells; Endogenous integrin on primary human blood cells; also called α4β1 integrin; a4b1
The assay can be described thus: flow cytometry saturation binding on isolated RBCs (reticulocytes) from 5 SCD donors, one-site binding analysis. The protocol: Flow cytometry was carried out using the BD FACS Canto II and data analysis was performed with the FACS Diva software. Data for leukocytes was acquired by gating based on forward and side scatter properties and CD45 staining of mononuclear cells. Natalizumab and IgG4 staining of the CD45 positive mononuclear cells were then determined. For erythrocytes, cells were gated for CD235a positive staining and examined for thiazole orange stained reticulocytes. Reticulocyte staining for VLA-4 with either natalizumab or an anti CD29 antibody was then determined and compared to IgG4 or isotype matched control antibody.
Fab arm exchange with endogenous IgG4 in humans, resulting in the production of antibodies that are potentially bispecific (Labrijn AF et al. Nat Biotechnol. 27(8):767-71 2009). This phenomenon has been reported for natalizumab as well, leading to the formation of a monovalent form of the antibody, with only one Fab arm specific for the α-subunit of VLA-4 (Rispens T et al. Anal Biochem. 411(2):271-6 2011; Shapiro RI et al. J Pharm Biomed Anal. 55(1):168-75 2011). To assess the impact of half-antibody exchange of natalizumab on saturation and adhesion of sickle cells, a synthetic monovalent form of natalizumab was used where 1 Fab arm was specific for VLA-4 and the other for CD4. […]

Assay [6] has as its target T1, Very late antigen-4 (VLA-4), …. Description: cell-based or functional assay.

What is called EC50 is the midpoint of the concentration-response curve. Higher therefore signals weaker potency.

B1: synthetic monovalent form of natalizumab where 1 Fab arm was specific for VLA-4 and the other for CD4 (bispecific antibody, part only; not given: anti-CD4 arm and constant regions, V domains shown, not shown: another chain or arm of the molecule; a dimerising Fc or GST)
VH: QVQLVQSGAEVKKPGASVKVSCKASGFNIKDTYIHWVRQAPGQRLEWMGRIDPANGYTKYDPKFQGRVTITADTSASTAYMELSSLRSEDTAVYYCAREGYYGNYGVYAMDYWGQGTLVTVSS
VL: DIQMTQSPSSLSASVGDRVTITCKTSQDINKYMAWYQQTPGKAPRLLIHYTSALQPGIPSRFSGSGSGRDYTFTISSLQPEDIATYYCLQYDNLWTFGQGTKVEIK
In assay [1], B1 came in with an IC50 for inhibition of adhesion of reticulocytes in isolated RBC to VCAM-1 of 0.37 µg/mL, a fold change of adhesion-inhibition IC50 against the divalent form of 19 fold and a potency in blocking reticulocyte adhesion to VCAM-1 against divalent natalizumab (from IC50) of 10 fold. The molecule also came in with a fold change of EC50 against the divalent form in assay [2] of 7 fold. Also, the EC50 in assay [3] amounted to 0.89 µg/mL. The same molecule yielded a fold change of EC50 against the divalent form in assay [4] of 1.7 to 12 fold.

B2: Natalizumab (antibody, V domains shown)
VH: B1 VH
VL: B1 VL
notes: also called divalent natalizumab; divalent form
As to B2, in assay [5], it took 0.14 µg/mL to reach a half-maximal effect (EC50). In addition, in assay [6], the “IC50 for blocking adhesion of whole blood leukocytes to VCAM-1 under flow, adult SCD blood” value was determined as 0.05 µg/mL; the “IC50 for blocking adhesion of whole blood reticulocytes to VCAM-1 under flow, adult SCD blood” value came out at 0.02 µg/mL; the “IC50 for inhibition of adhesion of reticulocytes in isolated RBC to VCAM-1” value amounted to 0.02 µg/mL.
